US20110065649A1

Columns and labels:
[1] = biological target: surface nucleolin on human cells (human), P19338; experiment: cell-based or functional assay
[2] = biological target: surface nucleolin on mouse cells (mouse), P09405; experiment: cell-based or functional assay
surface nucleolin on mouse cells (mouse), P09405, sequence (P09405 2-707): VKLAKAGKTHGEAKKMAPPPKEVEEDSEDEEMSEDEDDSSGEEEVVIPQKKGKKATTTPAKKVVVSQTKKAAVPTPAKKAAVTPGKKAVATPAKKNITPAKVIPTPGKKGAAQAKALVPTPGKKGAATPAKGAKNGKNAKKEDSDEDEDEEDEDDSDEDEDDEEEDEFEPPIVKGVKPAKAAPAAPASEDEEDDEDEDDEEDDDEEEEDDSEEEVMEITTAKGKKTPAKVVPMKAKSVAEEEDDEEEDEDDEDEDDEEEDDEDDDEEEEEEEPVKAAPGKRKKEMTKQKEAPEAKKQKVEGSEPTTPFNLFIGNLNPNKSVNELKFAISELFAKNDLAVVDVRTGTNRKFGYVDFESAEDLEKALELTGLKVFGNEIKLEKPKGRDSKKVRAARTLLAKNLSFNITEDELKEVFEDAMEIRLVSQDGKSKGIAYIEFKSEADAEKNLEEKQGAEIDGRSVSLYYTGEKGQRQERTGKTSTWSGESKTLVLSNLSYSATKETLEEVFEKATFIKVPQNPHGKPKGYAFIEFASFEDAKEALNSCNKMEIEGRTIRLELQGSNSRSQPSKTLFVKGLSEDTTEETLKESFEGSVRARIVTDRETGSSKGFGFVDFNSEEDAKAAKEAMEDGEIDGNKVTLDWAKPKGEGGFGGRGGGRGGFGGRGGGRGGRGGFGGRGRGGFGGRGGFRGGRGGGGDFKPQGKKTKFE

surface nucleolin on human cells (human), P19338, sequence (P19338 2-710): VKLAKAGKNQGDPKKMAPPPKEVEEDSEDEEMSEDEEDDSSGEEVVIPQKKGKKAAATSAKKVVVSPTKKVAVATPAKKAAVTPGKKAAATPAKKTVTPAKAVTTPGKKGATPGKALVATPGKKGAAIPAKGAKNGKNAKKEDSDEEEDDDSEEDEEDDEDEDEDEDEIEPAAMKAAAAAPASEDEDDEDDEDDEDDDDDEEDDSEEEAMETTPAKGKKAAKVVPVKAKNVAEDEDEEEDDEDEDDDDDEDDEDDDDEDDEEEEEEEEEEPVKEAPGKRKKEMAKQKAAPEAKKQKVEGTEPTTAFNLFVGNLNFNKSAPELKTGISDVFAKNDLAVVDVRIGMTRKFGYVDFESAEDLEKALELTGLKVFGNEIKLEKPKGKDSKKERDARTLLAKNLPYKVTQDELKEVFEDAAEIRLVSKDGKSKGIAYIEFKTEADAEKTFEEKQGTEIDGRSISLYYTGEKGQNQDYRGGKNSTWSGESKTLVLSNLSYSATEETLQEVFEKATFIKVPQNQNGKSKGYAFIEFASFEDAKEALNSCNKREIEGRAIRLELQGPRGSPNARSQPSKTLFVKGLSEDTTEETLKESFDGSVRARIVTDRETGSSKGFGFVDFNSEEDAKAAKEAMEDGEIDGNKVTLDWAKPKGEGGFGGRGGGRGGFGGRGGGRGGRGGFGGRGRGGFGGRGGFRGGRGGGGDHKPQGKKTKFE

- ID50 (Inhibitory Dose at 50%) of surface nucleolin activity in HeLa P4 cells [1]: < 100 nM
- inhibition of surface nucleolin activity in HeLa P4 cells at 0.8 µM [1]: > 95%
- inhibition of TNF-alpha and IL-6 production by murine peritoneal macrophages stimulated by 10, 100 and 1000 ng/ml of LPS, at 10 µM of Nucant 7 [2]: > 95%
B1: hexavalent compound Nucant 7 (peptide)
chain: KAKPGKAKPGKAKPG
peptide: KPR
modifications: not checked
